The target in series [1] is T1, RB69 PolY567A/D714A Exo- (bacteriophage RB69, UniProt Q38087 1-903, D222A;D327A;Y567A;D714A).
T1 sequence: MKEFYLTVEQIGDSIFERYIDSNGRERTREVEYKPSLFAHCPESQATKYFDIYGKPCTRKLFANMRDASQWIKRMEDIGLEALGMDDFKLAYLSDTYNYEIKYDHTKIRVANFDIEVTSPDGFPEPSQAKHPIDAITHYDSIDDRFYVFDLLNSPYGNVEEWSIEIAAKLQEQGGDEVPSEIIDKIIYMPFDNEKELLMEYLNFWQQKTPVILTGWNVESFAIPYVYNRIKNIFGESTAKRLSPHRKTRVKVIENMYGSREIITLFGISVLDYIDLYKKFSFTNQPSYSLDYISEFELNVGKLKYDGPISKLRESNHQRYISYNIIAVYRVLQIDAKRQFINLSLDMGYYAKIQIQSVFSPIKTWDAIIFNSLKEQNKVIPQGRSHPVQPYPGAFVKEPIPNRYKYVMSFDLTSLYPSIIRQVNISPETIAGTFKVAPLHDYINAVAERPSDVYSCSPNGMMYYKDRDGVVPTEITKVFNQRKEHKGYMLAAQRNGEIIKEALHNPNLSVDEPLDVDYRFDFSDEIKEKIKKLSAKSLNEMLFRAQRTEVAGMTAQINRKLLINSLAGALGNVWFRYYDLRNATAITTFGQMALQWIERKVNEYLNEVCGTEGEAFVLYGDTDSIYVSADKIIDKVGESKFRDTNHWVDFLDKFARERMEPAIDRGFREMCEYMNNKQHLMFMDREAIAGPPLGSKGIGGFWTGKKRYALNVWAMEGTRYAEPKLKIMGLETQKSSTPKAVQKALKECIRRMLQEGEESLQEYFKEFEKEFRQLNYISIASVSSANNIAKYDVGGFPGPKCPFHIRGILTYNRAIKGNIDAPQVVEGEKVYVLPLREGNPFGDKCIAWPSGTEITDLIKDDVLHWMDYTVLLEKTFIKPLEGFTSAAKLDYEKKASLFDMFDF
Put plainly: X-ray crystallography; dGpnpp, Ca2+, Na+; ternary complex I, 2.30 A. To be noted: protein: recombinant; template 5' overhang 4 nt and 3' overhang 1 nt.

Series [2] deals with T2, RB69 PolD714A Exo+ (bacteriophage RB69, UniProt Q38087 1-903, D714A).
T2 sequence: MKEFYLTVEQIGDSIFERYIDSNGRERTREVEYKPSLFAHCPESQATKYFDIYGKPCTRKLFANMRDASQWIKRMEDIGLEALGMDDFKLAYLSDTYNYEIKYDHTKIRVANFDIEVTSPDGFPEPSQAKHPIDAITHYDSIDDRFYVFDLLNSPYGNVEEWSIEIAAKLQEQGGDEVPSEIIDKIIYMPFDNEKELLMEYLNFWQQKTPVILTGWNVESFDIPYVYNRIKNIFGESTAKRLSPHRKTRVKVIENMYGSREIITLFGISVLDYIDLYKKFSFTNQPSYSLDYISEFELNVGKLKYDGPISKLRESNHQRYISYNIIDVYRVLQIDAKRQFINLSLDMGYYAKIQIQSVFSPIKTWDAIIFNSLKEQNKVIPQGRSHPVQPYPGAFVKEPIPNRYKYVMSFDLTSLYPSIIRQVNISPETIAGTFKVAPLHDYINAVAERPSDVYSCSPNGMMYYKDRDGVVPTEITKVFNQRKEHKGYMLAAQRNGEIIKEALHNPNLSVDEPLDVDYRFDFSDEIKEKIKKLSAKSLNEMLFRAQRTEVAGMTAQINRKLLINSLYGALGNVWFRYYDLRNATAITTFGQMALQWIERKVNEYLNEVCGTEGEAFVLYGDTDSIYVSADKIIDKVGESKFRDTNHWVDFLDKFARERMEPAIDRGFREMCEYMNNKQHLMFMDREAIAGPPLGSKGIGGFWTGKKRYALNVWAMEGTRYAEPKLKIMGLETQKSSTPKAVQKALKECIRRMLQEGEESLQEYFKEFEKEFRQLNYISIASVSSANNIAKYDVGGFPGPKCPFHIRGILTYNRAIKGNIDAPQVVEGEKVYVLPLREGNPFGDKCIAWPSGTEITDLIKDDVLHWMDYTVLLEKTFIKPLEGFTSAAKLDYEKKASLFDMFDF
Description: EMSA; apparent Kd; EMSA: 50 nM DNA, 7.5-500 nM Exo+ or 2.5-400 nM Exo- polymerase, native 6% PAGE; buffer, pH and temperature as in ref. 16. Particulars: protein: recombinant; label: 5'-32P on primer (20-mer); 5' overhang 6 nt on template; other end blunt.

The target in series [3] is T3, RB69 DNA polymerase Pol+Exo+ (wild type gp43) (bacteriophage RB69, UniProt Q38087 1-903).
T3 sequence: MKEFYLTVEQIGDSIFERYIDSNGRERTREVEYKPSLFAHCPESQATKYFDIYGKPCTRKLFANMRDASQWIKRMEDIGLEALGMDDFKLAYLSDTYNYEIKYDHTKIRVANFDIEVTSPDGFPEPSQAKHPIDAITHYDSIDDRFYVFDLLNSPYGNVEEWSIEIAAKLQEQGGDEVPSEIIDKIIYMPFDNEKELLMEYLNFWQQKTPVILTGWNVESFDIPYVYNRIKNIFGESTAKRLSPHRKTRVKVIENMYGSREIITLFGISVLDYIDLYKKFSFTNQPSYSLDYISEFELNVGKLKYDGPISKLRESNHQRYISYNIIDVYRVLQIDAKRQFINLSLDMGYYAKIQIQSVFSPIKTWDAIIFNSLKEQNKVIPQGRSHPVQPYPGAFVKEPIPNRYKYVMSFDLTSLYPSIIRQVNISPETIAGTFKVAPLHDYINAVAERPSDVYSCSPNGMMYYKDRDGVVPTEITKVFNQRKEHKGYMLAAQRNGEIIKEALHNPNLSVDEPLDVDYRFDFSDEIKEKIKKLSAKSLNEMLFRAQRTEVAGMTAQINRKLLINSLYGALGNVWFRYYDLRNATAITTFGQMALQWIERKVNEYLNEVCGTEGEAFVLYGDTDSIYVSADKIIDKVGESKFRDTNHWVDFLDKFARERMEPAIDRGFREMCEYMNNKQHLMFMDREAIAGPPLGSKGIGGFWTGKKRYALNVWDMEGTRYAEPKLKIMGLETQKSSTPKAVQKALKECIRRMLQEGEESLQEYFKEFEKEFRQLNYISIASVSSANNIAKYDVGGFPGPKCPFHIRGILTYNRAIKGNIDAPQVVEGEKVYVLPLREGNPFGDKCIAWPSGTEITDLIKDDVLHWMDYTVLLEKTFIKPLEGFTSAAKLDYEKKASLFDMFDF
The description is as above. To be noted: protein: recombinant; label: 5'-32P on primer (20-mer); 5' overhang 6 nt on template; other end blunt.

Series [4] deals with T4, RB69 Pol+Exo- (bacteriophage RB69, UniProt Q38087 1-903, D222A;D327A).
T4 sequence: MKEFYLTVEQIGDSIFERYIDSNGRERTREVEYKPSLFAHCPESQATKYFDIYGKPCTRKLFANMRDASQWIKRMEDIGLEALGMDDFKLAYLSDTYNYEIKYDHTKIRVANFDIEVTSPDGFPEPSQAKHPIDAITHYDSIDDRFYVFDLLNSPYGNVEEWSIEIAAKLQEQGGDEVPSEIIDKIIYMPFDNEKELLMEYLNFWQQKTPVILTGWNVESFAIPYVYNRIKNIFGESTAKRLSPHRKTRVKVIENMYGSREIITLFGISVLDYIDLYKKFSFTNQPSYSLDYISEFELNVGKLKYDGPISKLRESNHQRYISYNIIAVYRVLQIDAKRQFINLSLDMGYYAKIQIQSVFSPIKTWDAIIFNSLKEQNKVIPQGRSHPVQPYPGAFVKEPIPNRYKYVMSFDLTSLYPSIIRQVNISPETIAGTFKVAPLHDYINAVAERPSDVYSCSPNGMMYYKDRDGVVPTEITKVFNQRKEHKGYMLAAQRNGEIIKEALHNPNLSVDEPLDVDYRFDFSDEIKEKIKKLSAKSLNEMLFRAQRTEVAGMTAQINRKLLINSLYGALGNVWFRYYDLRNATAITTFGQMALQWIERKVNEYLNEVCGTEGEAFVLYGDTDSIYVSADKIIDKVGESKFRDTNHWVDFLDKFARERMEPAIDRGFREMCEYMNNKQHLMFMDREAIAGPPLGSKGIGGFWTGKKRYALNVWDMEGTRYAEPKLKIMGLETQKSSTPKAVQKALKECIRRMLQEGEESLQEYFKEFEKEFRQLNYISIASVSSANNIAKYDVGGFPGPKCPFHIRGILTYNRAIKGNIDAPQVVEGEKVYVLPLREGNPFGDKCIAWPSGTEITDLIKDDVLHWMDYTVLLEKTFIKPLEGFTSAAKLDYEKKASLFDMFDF
Description: EMSA; binds tighter than Pol+Exo+; value in Table 2/Figure 2E not in material; EMSA: 50 nM DNA, 7.5-500 nM Exo+ or 2.5-400 nM Exo- polymerase, native 6% PAGE; buffer, pH and temperature as in ref. 16. Particulars: protein: recombinant; label: 5'-32P on primer (20-mer); 5' overhang 6 nt on template; other end blunt.

Series [5] deals with T5, RB69 PolD714A Exo- (bacteriophage RB69, UniProt Q38087 1-903, D222A;D327A;D714A).
T5 sequence: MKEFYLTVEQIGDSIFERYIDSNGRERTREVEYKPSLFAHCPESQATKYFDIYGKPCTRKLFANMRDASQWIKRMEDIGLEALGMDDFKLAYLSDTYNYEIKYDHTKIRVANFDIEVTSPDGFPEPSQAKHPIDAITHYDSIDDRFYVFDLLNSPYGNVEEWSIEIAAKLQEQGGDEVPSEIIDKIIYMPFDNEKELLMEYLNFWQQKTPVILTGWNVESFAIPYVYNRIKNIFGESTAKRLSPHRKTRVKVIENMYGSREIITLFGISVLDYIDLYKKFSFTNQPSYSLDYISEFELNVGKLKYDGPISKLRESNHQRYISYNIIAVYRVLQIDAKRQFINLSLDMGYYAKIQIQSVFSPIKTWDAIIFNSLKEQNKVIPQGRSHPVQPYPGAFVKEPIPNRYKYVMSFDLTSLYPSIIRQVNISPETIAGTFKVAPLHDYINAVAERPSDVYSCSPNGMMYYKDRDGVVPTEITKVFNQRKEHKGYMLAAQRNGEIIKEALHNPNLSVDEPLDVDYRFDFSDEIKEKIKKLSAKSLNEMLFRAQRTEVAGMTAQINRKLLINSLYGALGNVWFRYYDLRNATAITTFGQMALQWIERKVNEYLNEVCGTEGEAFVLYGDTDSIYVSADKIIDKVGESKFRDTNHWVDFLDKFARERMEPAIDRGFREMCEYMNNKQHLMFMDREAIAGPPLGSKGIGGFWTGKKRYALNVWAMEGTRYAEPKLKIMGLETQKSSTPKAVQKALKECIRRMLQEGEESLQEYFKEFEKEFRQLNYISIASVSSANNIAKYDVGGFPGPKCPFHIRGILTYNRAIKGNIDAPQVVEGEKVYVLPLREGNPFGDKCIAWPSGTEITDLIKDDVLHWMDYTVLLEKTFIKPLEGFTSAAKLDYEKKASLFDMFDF
Put plainly: EMSA; almost same affinity as Pol+Exo-; value in Table 2/Figure 2E not in material; EMSA: 50 nM DNA, 7.5-500 nM Exo+ or 2.5-400 nM Exo- polymerase, native 6% PAGE; buffer, pH and temperature as in ref. 16. To be noted: protein: recombinant; label: 5'-32P on primer (20-mer); 5' overhang 6 nt on template; other end blunt.

B1: 13/18-mer primer-template (crystal) (dsDNA)
DNA 1: GCGGACTGCTTAC
DNA 2: TCACGTAAGCAGTCCGCG
Consider B1, for which the binding result in series [1] is recorded as “binds”.

B2: 20*/26-mer primer-template (dsDNA)
DNA 1: AGCTACGCGGCTGTCATAAG
DNA 2: TTGCGTCTTATGACAGCCGCGTAGCT
For the molecule B2, the values for the Kd in series [2] and in series [3] were 141 nM and 176 nM, respectively. In addition, the binding result in series [4] and in series [5] was “binds” throughout.
